Tests used:
[1] = target: T1, human PD-1 receptor overexpressed on Bw-PD-1 reporter cells (fusion of PD-1 with a zeta chain) (human, UniProt Q15116 25-288); experiment: cell-based or functional assay
[2] = target: T2, AXL expressed on HNSCC tumor cells (SCC47, SNU1076, FaDu) (human, UniProt P30530 26-894); experiment: cell-based or functional assay
[3] = target: T1, human PD-1 receptor overexpressed on …; experiment: cell-based or functional assay; remark: listed apart in the source
[4] = target: T2, AXL expressed on HNSCC tumor cells …; experiment: cell-based or functional assay; remark: listed apart in the source
[5] = target: T3, human PD-1 recombinant protein (ACROBiosystems) (human, UniProt Q15116 25-167, biotinylated (in the ELISA, captured on streptavidin)); experiment: SPR (Biorad ProteOn XPR36), antibody immobilised, recombinant PD-1 as analyte 3.125-50 nM
T3 construct: Analyte in SPR; also called recombinant PD-1; human PD-1 protein
T3 sequence (Q15116 25-167 limits assumed): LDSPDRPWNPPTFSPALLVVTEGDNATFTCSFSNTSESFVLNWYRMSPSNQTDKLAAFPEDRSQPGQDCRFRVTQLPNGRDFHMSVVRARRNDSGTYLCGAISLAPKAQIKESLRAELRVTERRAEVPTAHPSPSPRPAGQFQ
Excerpt: (§1) All four constructs were purified using Ni-NTA resins and diluted to different concentrations prior to ELISA binding analysis. […] To further determine the dissociation constant (KD value) of the mono specific and bi-specific antibodies to their respective targets, the surface plasmon resonance (SPR) method was utilized (using Biorad ProteOn XPR36). The different antibodies were immobilized in independent channels on a SPR sensor prism (ProteOn XPR36 compatible chip), as ligands. […] Based on the association and dissociation interaction between each of the recombinant proteins and the respective antibodies, respective KD values were calculated.

[6] = target: T4, human Axl recombinant protein (ACROBiosystems) (human, UniProt P30530 26-449, limits assumed); experiment: SPR (Biorad ProteOn XPR36), antibody immobilised, recombinant AXL as analyte 3.125-50 nM
T4 construct: Coated on ELISA plates; analyte in SPR; also called recombinant AXL; human AXL protein
Excerpt: as §1

[7] = target: T4, human Axl recombinant protein …; experiment: ELISA: recombinant human AXL on the plate, purified antibody 0 to 50 nM, anti-human-Fc-HRP
Method: (§2) The plates were then blocked, and incubated with serial dilutions of the antibodies. Next, anti-human-FC-HRP (Jackson laboratories) was added to the plates and a reaction was developed with TMB substrates. Once color developed H2SO4 was used to end the reaction. Plates were washed with PBST (PBS containing 0.05% Tween-20) between the steps. Each of the mentioned steps was carried out for 1 hour at room temperature. The plates were then read on a spectrophotometer at 450 nm.
as §1

[8] = target: T3, human PD-1 recombinant protein …; experiment: ELISA: biotinylated human PD-1 on streptavidin plate, dilutions of secreted construct, anti-human-Fc-HRP
Method: as §2

[9] = target: T3, human PD-1 recombinant protein …; experiment: ELISA: biotinylated recombinant human PD-1 on streptavidin plate, purified antibody 0 to 10 nM, anti-human-Fc-HRP
Method: as §2, §1

[10] = target: T4, human Axl recombinant protein …; experiment: ELISA: human AXL recombinant protein on the plate, dilutions of secreted construct, anti-human-Fc-HRP
Method: as §2

T1 sequence (Q15116 25-288): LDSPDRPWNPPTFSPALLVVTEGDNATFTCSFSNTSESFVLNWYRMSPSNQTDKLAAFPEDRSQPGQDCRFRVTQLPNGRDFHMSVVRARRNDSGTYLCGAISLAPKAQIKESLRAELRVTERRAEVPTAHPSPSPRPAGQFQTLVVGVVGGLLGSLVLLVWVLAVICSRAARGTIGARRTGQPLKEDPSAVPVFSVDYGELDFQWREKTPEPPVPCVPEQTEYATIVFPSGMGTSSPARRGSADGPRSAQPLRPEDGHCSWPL

B1: Bi-3 bi-specific construct PD1-Fc-AXL (anti PD1 scFv-Fc-anti AXL scFv) (bispecific antibody)
chain: EIVLTQSPATLSLSPGERATLSCRASQSVSSYLAWYQQKPGQAPRLLIYDASNRATGIPARFSGSGSGTDFTLTISSLEPEDFAVYYCQQSSNWPRTFGQGTKVEIKGGGGSGGGGSGGGGSGGGGSQVQLVESGGGVVQPGRSLRLDCKASGITFSNSGMHWVRQAPGKGLEWVAVIWYDGSKRYYADSVKGRFTISRDNSKNTLFLQMNSLRAEDTAVYYCATNDDYWGQGTLVTVSSGGGGSGGGGSGGGGSGGGGSRSVECPPCPAPPVAGPSVFLFPPKPKDTLMISRTPEVTCVVVDVSHEDPEVKFNWYVDGVEVHNAKTKPREEQYNSTYRVVSVLTVLHQDWLNGKEYKCKVSNKGLPSSIEKTISKAKGQPREPQVYTLPPSREEMTKNQVSLTCLVKGFYPSDIAVEWESNGQPENNYKTTPPVLDSDGSFFLYSKLTVDKSRWQQGNVFSCSVMHEGLHNHYTQKSLSLSPGKGGGGSGGGGSGGGGSGGGGSDIQMTQSPSSLSASVGDRVTITCRASQDVSTAVAWYQQKPGKAPKLLIYSASFLYSGVPSRFSGSGSGTDFTLTISSLQPEDFATYYCQQSYTTPPTFGQGTKVEIKGGGGSGGGGSGGGGSGGGGSEVQLVESGGGLVQPGGSLRLSCAASGFSLSGSWIHWVRQAPGKGLEWVGWINPYRGYAYYADSVKGRFTISADTSKNTAYLQMNSLRAEDTAVYYCAREYSGWGGSSVGYAMDYWGQGTLVHHHHHH
notes: Anti-PD-1 scFv at the N-terminus and anti-AXL scFv at the C-terminus of an engineered human IgG1 Fc, C-terminal His tag; also called BsAbI-AXL/PD-1; BsAb-AXL/PD1 (Bi-3)
[1]
  FaDu GFP / Bw-PD-1 mCherry cell doublets by flow cytometry, against the combination of mono Abs and no treatment: 2.5 fold
[2]
  FaDu GFP / Bw-PD-1 mCherry cell doublets by flow cytometry, against the combination of mono Abs and no treatment: 2.5 fold
[3]
  %Gated 'Doublets & Focused' (image stream, Area BF against Aspect Ratio BF), FaDu-plx GFP cells mixed with DiD-stained Bw-PD-1 cells; same figure: No treatment 690 / 7.6, Combo 442 / 4.9: 17.8 %Gated
[4]
  %Gated 'Doublets & Focused' (image stream, Area BF against Aspect Ratio BF), FaDu-plx GFP cells mixed with DiD-stained Bw-PD-1 cells; same figure: No treatment 690 / 7.6, Combo 442 / 4.9: 17.8 %Gated
[5]
  Kd: 5.82 nM
  koff: 0.000743 s⁻¹
  kon: 128000 M⁻¹ s⁻¹
[6]
  Kd: 60 nM
  koff: 0.00247 s⁻¹
  kon: 41100 M⁻¹ s⁻¹

B2: Bi-1 bi-specific construct PD1-AXL-Fc (anti PD1 scFv-anti AXL scFv-Fc) (bispecific antibody)
chain: EIVLTQSPATLSLSPGERATLSCRASQSVSSYLAWYQQKPGQAPRLLIYDASNRATGIPARFSGSGSGTDFTLTISSLEPEDFAVYYCQQSSNWPRTFGQGTKVEIKGGGGSGGGGSGGGGSGGGGSQVQLVESGGGVVQPGRSLRLDCKASGITFSNSGMHWVRQAPGKGLEWVAVIWYDGSKRYYADSVKGRFTISRDNSKNTLFLQMNSLRAEDTAVYYCATNDDYWGQGTLVTVSSGGGGSGGGGSGGGGSGGGGSDIQMTQSPSSLSASVGDRVTITCRASQDVSTAVAWYQQKPGKAPKLLIYSASFLYSGVPSRFSGSGSGTDFTLTISSLQPEDFATYYCQQSYTTPPTFGQGTKVEIKGGGGSGGGGSGGGGSGGGGSEVQLVESGGGLVQPGGSLRLSCAASGFSLSGSWIHWVRQAPGKGLEWVGWINPYRGYAYYADSVKGRFTISADTSKNTAYLQMNSLRAEDTAVYYCAREYSGWGGSSVGYAMDYWGQGTLVGGGGSGGGGSGGGGSGGGGSRSVECPPCPAPPVAGPSVFLFPPKPKDTLMISRTPEVTCVVVDVSHEDPEVKFNWYVDGVEVHNAKTKPREEQYNSTYRVVSVLTVLHQDWLNGKEYKCKVSNKGLPSSIEKTISKAKGQPREPQVYTLPPSREEMTKNQVSLTCLVKGFYPSDIAVEWESNGQPENNYKTTPPVLDSDGSFFLYSKLTVDKSRWQQGNVFSCSVMHEGLHNHYTQKSLSLSPGKHHHHHH
notes: Tandem anti-PD-1 scFv (Nivolumab-derived) and anti-AXL scFv (YW327.6S2-derived), engineered human IgG1 Fc (pFUSE-hIgG1e3-Fc2), C-terminal His tag; also called BsAbI-AXL/PD-1; BsAb-AXL/PD1
[7]
  EC50 (read off the curve): ~5 nM
[8]
  binding result: binds

B3: mono-specific anti-AXL scFv-Fc AXL2 (from YW327.6S2) (Fc fusion)
chain: DIQMTQSPSSLSASVGDRVTITCRASQDVSTAVAWYQQKPGKAPKLLIYSASFLYSGVPSRFSGSGSGTDFTLTISSLQPEDFATYYCQQSYTTPPTFGQGTKVEIKGGGGSGGGGSGGGGSGGGGSEVQLVESGGGLVQPGGSLRLSCAASGFSLSGSWIHWVRQAPGKGLEWVGWINPYRGYAYYADSVKGRFTISADTSKNTAYLQMNSLRAEDTAVYYCAREYSGWGGSSVGYAMDYWGQGTLVGGGGSGGGGSGGGGSGGGGS
notes: also called mono-AXL; AXL2 scFv-Fc; not shown: engineered human IgG1 Fc (hinge, CH2, CH3) of plasmid pFUSE-hIgG1e3-Fc2; C-terminal His tag
[9]
  binding result: no binding (tested: 10 nM)
[6]
  Kd: 20.9 nM
  koff: 0.00102 s⁻¹
  kon: 49000 M⁻¹ s⁻¹

B4: mono-specific anti-PD-1 scFv-Fc PD-1-2 (from Nivolumab) (Fc fusion)
chain: EIVLTQSPATLSLSPGERATLSCRASQSVSSYLAWYQQKPGQAPRLLIYDASNRATGIPARFSGSGSGTDFTLTISSLEPEDFAVYYCQQSSNWPRTFGQGTKVEIKGGGGSGGGGSGGGGSGGGGSQVQLVESGGGVVQPGRSLRLDCKASGITFSNSGMHWVRQAPGKGLEWVAVIWYDGSKRYYADSVKGRFTISRDNSKNTLFLQMNSLRAEDTAVYYCATNDDYWGQGTLVTVSSGGGGSGGGGSGGGGSGGGGS
notes: the tie is by this chain of statements; also called mono-PD-1; mono PD-1; not shown: engineered human IgG1 Fc (hinge, CH2, CH3) of plasmid pFUSE-hIgG1e3-Fc2; C-terminal His tag
[7]
  binding result: no binding (tested: 50 nM)

B5: Bi-2 bi-specific construct AXL-PD1-Fc (anti-AXL scFv-anti PD1 scFv-Fc) (bispecific antibody)
chain: DIQMTQSPSSLSASVGDRVTITCRASQDVSTAVAWYQQKPGKAPKLLIYSASFLYSGVPSRFSGSGSGTDFTLTISSLQPEDFATYYCQQSYTTPPTFGQGTKVEIKGGGGSGGGGSGGGGSGGGGSEVQLVESGGGLVQPGGSLRLSCAASGFSLSGSWIHWVRQAPGKGLEWVGWINPYRGYAYYADSVKGRFTISADTSKNTAYLQMNSLRAEDTAVYYCAREYSGWGGSSVGYAMDYWGQGTLVGGGGSGGGGSGGGGSGGGGSEIVLTQSPATLSLSPGERATLSCRASQSVSSYLAWYQQKPGQAPRLLIYDASNRATGIPARFSGSGSGTDFTLTISSLEPEDFAVYYCQQSSNWPRTFGQGTKVEIKGGGGSGGGGSGGGGSGGGGSQVQLVESGGGVVQPGRSLRLDCKASGITFSNSGMHWVRQAPGKGLEWVAVIWYDGSKRYYADSVKGRFTISRDNSKNTLFLQMNSLRAEDTAVYYCATNDDYWGQGTLVTVSSGGGGSGGGGSGGGGSGGGGSRSVECPPCPAPPVAGPSVFLFPPKPKDTLMISRTPEVTCVVVDVSHEDPEVKFNWYVDGVEVHNAKTKPREEQYNSTYRVVSVLTVLHQDWLNGKEYKCKVSNKGLPSSIEKTISKAKGQPREPQVYTLPPSREEMTKNQVSLTCLVKGFYPSDIAVEWESNGQPENNYKTTPPVLDSDGSFFLYSKLTVDKSRWQQGNVFSCSVMHEGLHNHYTQKSLSLSPGKHHHHHH
notes: Tandem anti-AXL scFv and anti-PD-1 scFv, engineered human IgG1 Fc, C-terminal His tag; also called BsAbI-AXL/PD-1
[8]
  binding result: binds
[10]
  binding result: binds
